For 1 molecule, Gal4 reporter activity in mammalian two-hybrid assay, 10 µM docetaxel against 10 µM paclitaxel (% less than with paclitaxel) results are on record in US20050037404A1.

This experiment addresses all of the coactivators tested. Kind of experiment: cell-based or functional assay.

B1: VP16 transactivation domain linked to the ligand binding domain of SXR (VP-L-SXR), P06492 413-490; O75469 107-434 (protein)
chain: APPTDVSLGDELHLDGEDVAMAHADALDDFDLDMLGDGDSPGPGFTPHDSAPYGALDMADFEFEQMFTDALGIDEYGGMKKEMIMSDEAVEERRALIKRKKSERTGTQPLGVQGLTEEQRMMIRELMDAQMKTFDTTFSHFKNFRLPGVLSSGCELPESLQAPSREEAAKWSQVRKDLCSLKVSLQLRGEDGSVWNYKPPADSGGKEIFSLLPHMADMSTYMFKGIISFAKVISYFRDLPIEDQISLLKGAAFELCQLRFNTVFNAETGTWECGRLSYCLEDTAGGFQQLLLEPMLKFHYMLKKLQLHEEEYVLMQAISLFSPDRPGVLQHRVVDQLQEQFAITLKSYIECNRPQPAHRFLFLKIMAMLTELRSINAQHTQRLLRIQDIHPFATPLMQELFGITGS
B1 had a Gal4 reporter activity in mammalian two-hybrid assay, 10 µM docetaxel against 10 µM paclitaxel (% less than with paclitaxel) of 25 to 40.
